# Numbered stars: 1 amine (or outer) side, 2 acyl side, 3 side chain; on linkers, the order of the positions; unused ones are H or OH. Bridge positions count the residues as written; N and C are the ends. Side chains are listed from the residue outwards. Ends that are not written are not given here. * marks the point of attachment. C20 diacid = O=C(O)CCCCCCCCCCCCCCCCCCC(=O)*; γGlu = O=C(O)[C@H](CCC(=O)[*:2])N[*:1]
# T1: human calcitonin receptor (human, UniProt P30988 25-474)
# T1 construct: whole, on cells; Used as cell membranes; also called hCTR; hCT
# T1 sequence (looked up): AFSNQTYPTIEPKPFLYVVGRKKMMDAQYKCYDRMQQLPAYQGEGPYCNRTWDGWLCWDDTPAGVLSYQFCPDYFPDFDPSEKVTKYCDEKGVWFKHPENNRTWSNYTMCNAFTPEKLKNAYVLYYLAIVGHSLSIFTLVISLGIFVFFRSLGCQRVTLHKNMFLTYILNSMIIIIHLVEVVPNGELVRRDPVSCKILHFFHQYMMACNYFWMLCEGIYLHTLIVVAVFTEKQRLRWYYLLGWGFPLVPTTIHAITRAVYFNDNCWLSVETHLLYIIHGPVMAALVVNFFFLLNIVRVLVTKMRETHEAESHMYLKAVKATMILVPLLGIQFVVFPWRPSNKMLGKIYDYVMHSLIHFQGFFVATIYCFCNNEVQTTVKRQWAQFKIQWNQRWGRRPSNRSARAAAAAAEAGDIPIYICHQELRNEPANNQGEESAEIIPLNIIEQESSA
# B1: N^ε1-[(4S)-4-carboxy-4-(19-carboxynonadecanoylamino)butanoyl]-[Glu14,Arg17,Pro21,Pro27,Pro34,Glu35]-h-amylin (peptide)
# peptide: K([γGlu-C20 diacid])CNTATCATQRLAEFLRHSSPNFGAIPSSTNVGPETY-NH2
# modifications: disulfide 2-7; N-terminus assumed
# SMILES: CC[C@H](C)[C@H](NC(=O)[C@H](C)NC(=O)CNC(=O)[C@H](Cc1ccccc1)NC(=O)[C@H](CC(N)=O)NC(=O)[C@@H]1CCCN1C(=O)[C@H](CO)NC(=O)[C@H](CO)NC(=O)[C@H](Cc1c[nH]cn1)NC(=O)[C@H](CCCNC(=N)N)NC(=O)[C@H](CC(C)C)NC(=O)[C@H](Cc1ccccc1)NC(=O)[C@H](CCC(=O)O)NC(=O)[C@H](C)NC(=O)[C@H](CC(C)C)NC(=O)[C@H](CCCNC(=N)N)NC(=O)[C@H](CCC(N)=O)NC(=O)[C@@H](NC(=O)[C@H](C)NC(=O)[C@@H]1CSSC[C@H](NC(=O)[C@@H](N)CCCCNC(=O)CC[C@H](NC(=O)CCCCCCCCCCCCCCCCCCC(=O)O)C(=O)O)C(=O)N[C@@H](CC(N)=O)C(=O)N[C@@H]([C@@H](C)O)C(=O)N[C@@H](C)C(=O)N[C@@H]([C@@H](C)O)C(=O)N1)[C@@H](C)O)C(=O)N1CCC[C@H]1C(=O)N[C@@H](CO)C(=O)N[C@@H](CO)C(=O)N[C@H](C(=O)N[C@@H](CC(N)=O)C(=O)N[C@H](C(=O)NCC(=O)N1CCC[C@H]1C(=O)N[C@@H](CCC(=O)O)C(=O)N[C@H](C(=O)N[C@@H](Cc1ccc(O)cc1)C(N)=O)[C@@H](C)O)C(C)C)[C@@H](C)O
# B2: N^ε1-[(4S)-4-carboxy-4-(19-carboxynonadecanoylamino)butanoyl]-[His14,Arg17,Pro21,Pro27,His34]-h-amylin (peptide)
# peptide: K([γGlu-C20 diacid])CNTATCATQRLAHFLRHSSPNFGAIPSSTNVGHNTY-NH2
# modifications: disulfide 2-7; N-terminus assumed
# SMILES: CC[C@H](C)[C@H](NC(=O)[C@H](C)NC(=O)CNC(=O)[C@H](Cc1ccccc1)NC(=O)[C@H](CC(N)=O)NC(=O)[C@@H]1CCCN1C(=O)[C@H](CO)NC(=O)[C@H](CO)NC(=O)[C@H](Cc1c[nH]cn1)NC(=O)[C@H](CCCNC(=N)N)NC(=O)[C@H](CC(C)C)NC(=O)[C@H](Cc1ccccc1)NC(=O)[C@H](Cc1c[nH]cn1)NC(=O)[C@H](C)NC(=O)[C@H](CC(C)C)NC(=O)[C@H](CCCNC(=N)N)NC(=O)[C@H](CCC(N)=O)NC(=O)[C@@H](NC(=O)[C@H](C)NC(=O)[C@@H]1CSSC[C@H](NC(=O)[C@@H](N)CCCCNC(=O)CC[C@H](NC(=O)CCCCCCCCCCCCCCCCCCC(=O)O)C(=O)O)C(=O)N[C@@H](CC(N)=O)C(=O)N[C@@H]([C@@H](C)O)C(=O)N[C@@H](C)C(=O)N[C@@H]([C@@H](C)O)C(=O)N1)[C@@H](C)O)C(=O)N1CCC[C@H]1C(=O)N[C@@H](CO)C(=O)N[C@@H](CO)C(=O)N[C@H](C(=O)N[C@@H](CC(N)=O)C(=O)N[C@H](C(=O)NCC(=O)N[C@@H](Cc1c[nH]cn1)C(=O)N[C@@H](CC(N)=O)C(=O)N[C@H](C(=O)N[C@@H](Cc1ccc(O)cc1)C(N)=O)[C@@H](C)O)C(C)C)[C@@H](C)O
# notes: also called compound 81
# B3: N^ε1-[(4S)-4-carboxy-4-[[(4S)-4-carboxy-4-(19-carboxynonadecanoylamino)butanoyl]amino]butanoyl]-[Glu14,Arg17,Pro21,Pro27,Arg34,Glu35]-h-amylin (peptide)
# peptide: K([γGlu-γGlu-C20 diacid])CNTATCATQRLAEFLRHSSPNFGAIPSSTNVGRETY-NH2
# modifications: disulfide 2-7; N-terminus assumed
# SMILES: CC[C@H](C)[C@H](NC(=O)[C@H](C)NC(=O)CNC(=O)[C@H](Cc1ccccc1)NC(=O)[C@H](CC(N)=O)NC(=O)[C@@H]1CCCN1C(=O)[C@H](CO)NC(=O)[C@H](CO)NC(=O)[C@H](Cc1c[nH]cn1)NC(=O)[C@H](CCCNC(=N)N)NC(=O)[C@H](CC(C)C)NC(=O)[C@H](Cc1ccccc1)NC(=O)[C@H](CCC(=O)O)NC(=O)[C@H](C)NC(=O)[C@H](CC(C)C)NC(=O)[C@H](CCCNC(=N)N)NC(=O)[C@H](CCC(N)=O)NC(=O)[C@@H](NC(=O)[C@H](C)NC(=O)[C@@H]1CSSC[C@H](NC(=O)[C@@H](N)CCCCNC(=O)CC[C@H](NC(=O)CC[C@H](NC(=O)CCCCCCCCCCCCCCCCCCC(=O)O)C(=O)O)C(=O)O)C(=O)N[C@@H](CC(N)=O)C(=O)N[C@@H]([C@@H](C)O)C(=O)N[C@@H](C)C(=O)N[C@@H]([C@@H](C)O)C(=O)N1)[C@@H](C)O)C(=O)N1CCC[C@H]1C(=O)N[C@@H](CO)C(=O)N[C@@H](CO)C(=O)N[C@H](C(=O)N[C@@H](CC(N)=O)C(=O)N[C@H](C(=O)NCC(=O)N[C@@H](CCCNC(=N)N)C(=O)N[C@@H](CCC(=O)O)C(=O)N[C@H](C(=O)N[C@@H](Cc1ccc(O)cc1)C(N)=O)[C@@H](C)O)C(C)C)[C@@H](C)O
# B4: N^ε1-[(4S)-4-carboxy-4-(19-carboxynonadecanoylamino)butanoyl]-[His14,Arg17,Pro21,Pro27,His35]-h-amylin (peptide)
# peptide: K([γGlu-C20 diacid])CNTATCATQRLAHFLRHSSPNFGAIPSSTNVGSHTY-NH2
# modifications: disulfide 2-7; N-terminus assumed
# SMILES: CC[C@H](C)[C@H](NC(=O)[C@H](C)NC(=O)CNC(=O)[C@H](Cc1ccccc1)NC(=O)[C@H](CC(N)=O)NC(=O)[C@@H]1CCCN1C(=O)[C@H](CO)NC(=O)[C@H](CO)NC(=O)[C@H](Cc1c[nH]cn1)NC(=O)[C@H](CCCNC(=N)N)NC(=O)[C@H](CC(C)C)NC(=O)[C@H](Cc1ccccc1)NC(=O)[C@H](Cc1c[nH]cn1)NC(=O)[C@H](C)NC(=O)[C@H](CC(C)C)NC(=O)[C@H](CCCNC(=N)N)NC(=O)[C@H](CCC(N)=O)NC(=O)[C@@H](NC(=O)[C@H](C)NC(=O)[C@@H]1CSSC[C@H](NC(=O)[C@@H](N)CCCCNC(=O)CC[C@H](NC(=O)CCCCCCCCCCCCCCCCCCC(=O)O)C(=O)O)C(=O)N[C@@H](CC(N)=O)C(=O)N[C@@H]([C@@H](C)O)C(=O)N[C@@H](C)C(=O)N[C@@H]([C@@H](C)O)C(=O)N1)[C@@H](C)O)C(=O)N1CCC[C@H]1C(=O)N[C@@H](CO)C(=O)N[C@@H](CO)C(=O)N[C@H](C(=O)N[C@@H](CC(N)=O)C(=O)N[C@H](C(=O)NCC(=O)N[C@@H](CO)C(=O)N[C@@H](Cc1c[nH]cn1)C(=O)N[C@H](C(=O)N[C@@H](Cc1ccc(O)cc1)C(N)=O)[C@@H](C)O)C(C)C)[C@@H](C)O
# notes: also called compound 66
# B5: N^ε1-[(4S)-4-carboxy-4-(19-carboxynonadecanoylamino)butanoyl]-[His14,Arg17,Pro21,Pro27]-h-amylin (peptide)
# peptide: K([γGlu-C20 diacid])CNTATCATQRLAHFLRHSSPNFGAIPSSTNVGSNTY-NH2
# modifications: disulfide 2-7; N-terminus assumed
# SMILES: CC[C@H](C)[C@H](NC(=O)[C@H](C)NC(=O)CNC(=O)[C@H](Cc1ccccc1)NC(=O)[C@H](CC(N)=O)NC(=O)[C@@H]1CCCN1C(=O)[C@H](CO)NC(=O)[C@H](CO)NC(=O)[C@H](Cc1c[nH]cn1)NC(=O)[C@H](CCCNC(=N)N)NC(=O)[C@H](CC(C)C)NC(=O)[C@H](Cc1ccccc1)NC(=O)[C@H](Cc1c[nH]cn1)NC(=O)[C@H](C)NC(=O)[C@H](CC(C)C)NC(=O)[C@H](CCCNC(=N)N)NC(=O)[C@H](CCC(N)=O)NC(=O)[C@@H](NC(=O)[C@H](C)NC(=O)[C@@H]1CSSC[C@H](NC(=O)[C@@H](N)CCCCNC(=O)CC[C@H](NC(=O)CCCCCCCCCCCCCCCCCCC(=O)O)C(=O)O)C(=O)N[C@@H](CC(N)=O)C(=O)N[C@@H]([C@@H](C)O)C(=O)N[C@@H](C)C(=O)N[C@@H]([C@@H](C)O)C(=O)N1)[C@@H](C)O)C(=O)N1CCC[C@H]1C(=O)N[C@@H](CO)C(=O)N[C@@H](CO)C(=O)N[C@H](C(=O)N[C@@H](CC(N)=O)C(=O)N[C@H](C(=O)NCC(=O)N[C@@H](CO)C(=O)N[C@@H](CC(N)=O)C(=O)N[C@H](C(=O)N[C@@H](Cc1ccc(O)cc1)C(N)=O)[C@@H](C)O)C(C)C)[C@@H](C)O
# notes: also called compound 70
# Target: T1, human calcitonin receptor
# Assay: ratio of hCTR IC50 to hAmylin-R IC50 (reference: human amylin receptor)
# Procedure, shortened: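 Competition binding by SPA with cell membranes (35 ng/μL) and SPA beads in 50 mM Hepes pH 7.4 with 1 mM CaCl2, 5 mM MgCl2, 0.1% OA and 0.02% Tween20. Incubated 120 min at 25 °C with shaking, then counted.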
row,Binder,Ratio hCT/hAmylin binding
1,B1,13.3
2,B2,87.2
3,B3,14.7
4,B4,45.5
5,B5,60.8

# Target: T1, human calcitonin receptor
# Assay: SPA competition on BHK cell membranes, 125I-calcitonin as radioligand (Assay VII)
# Procedure, shortened: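 BHK hCTR membranes 35 ng/μL + SPA beads 0.05 mg/well; buffer 50 mM Hepes pH 7.4, 1 mM CaCl2, 5 mM MgCl₂, 0.1% OA, 0.02% Tween20. 120 min, 25° C., shaking. Scintillation count; IC50 by one-site binding competition.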
row,Binder,IC50 [nM]
1,B1,1.86
2,B2,23.6
3,B3,14.1
4,B4,18
5,B5,10.3

# From patent US20140087995A1 (published 2014)
